Residue numbers refer to the chain shown, from its start. Names and notes keep the numbering of the source.
T1: quenched fluorescence peptidic substrate containing SKGR/SL (P4-P2' of the PAR-2 activation cleavage site, Ser 33 to Leu 38)
T1 chain: SKGRSL

B1: Modified MTSP-1 protease domain Q38H/I41S/D60bT/F60eS/Y60gW/D96K/F97G/ins97aV/T98P/F99L/C122S/G151H/Q175L/Q192D (protein)
chain: VVGGTDADEGEWPWQVSLHALGHGHSCGASLISPNWLVSAAHCYIDTRGSRWSDPTQWTAFLGLHDQSQRSAPGVQERRLKRIISHPFFNKGVPLDYDIALLELEKPAEYSSMVRPISLPDASHVFPAGKAIWVTGWGHTQYGGTHALILQKGEIRVINQTTCENLLPQLITPRMMCVGFLSGGVDSCDGDSGGPLSSVEADGRIFQAGVVSWGDGCAQRNKPGVYTRLPLFRDWIKENTGV
B2: Q38H/I41S/D60bT/F60eS/Y60gW/D96V/F97G/ins97aV/T98P/F99L/C122S/G151H/Q175L/Q192D (protein)
chain: B1 chain with K91V
B3: Q38H/I41S/D60bT/F60eS/Y60gW/D96K/F97D/ins97aA/T98P/F99L/C122S/G151N/Q175L/Q192D (protein)
chain: B1 chain with G92D, V93A, H146N

Assays:
[1] = molecular target: cynomolgus monkey complement protein C3 (endogenous, in vitreous humor)
[2] = molecular target: human complement protein C3
[3] = molecular target: complement protein C3 of cynomolgus monkey plasma
[4] = molecular target: T1, quenched fluorescence peptidic …

Row | Protein | C3 levels in vitreous humor by ELISA after one intravitreal dose of 125 ug [1] | ED50 of cleavage of human C3 [2] | anti-C3 activity, fold increase owed to D60bT (against the variant with this residue reverted to wild type) [2] | anti-C3 activity, fold increase owed to D96K (against the variant with this residue reverted to wild type) [2] | anti-C3 activity, fold increase owed to F60eS (against the variant with this residue reverted to wild type) [2] | anti-C3 activity, fold increase owed to F97G (against the variant with this residue reverted to wild type) [2] | anti-C3 activity, fold increase owed to F99L (against the variant with this residue reverted to wild type) [2] | anti-C3 activity, fold increase owed to G151H (against the variant with this residue reverted to wild type) [2] | anti-C3 activity, fold increase owed to I41S (against the variant with this residue reverted to wild type) [2] | anti-C3 activity, fold increase owed to Q38H (against the variant with this residue reverted to wild type) [2] | anti-C3 activity, fold increase owed to Q175L (against the variant with this residue reverted to wild type) [2] | anti-C3 activity, fold increase owed to T98P (against the variant with this residue reverted to wild type) [2] | anti-C3 activity, fold increase owed to Y60gW (against the variant with this residue reverted to wild type) [2] | anti-C3 activity, fold increase owed to the insertion 97aV (against the variant without the insertion) [2] | reduction of hemolytic activity (C3H50) after preincubation of C3 with the variant [2] | ED50 80% cynomolgus plasma (nM), C3 cleavage, C3 ELISA [3] [nM] | ED50 80% human plasma (60 min, nM), C3 cleavage [2] [nM] | SKGR/SL kcat/Km [4] [M⁻¹ s⁻¹]
1 | B1 | C3 was undetectable in the variant-treated eye 1, 2, 6, and 7 days after the single injection of the anti-C3 MTSP polypeptide | cleaves human C3 in the assay described herein with an ED50 of 2 nM | D60bT-This mutation increases anti-C3 activity by approximately 2.8-fold | D96K-This mutation increases anti-C3 activity by approximately 2.6-fold | F60eS-This mutation increases anti-C3 activity by approximately 1.9-fold | F97G-This mutation increases anti-C3 activity by approximately 4.3-fold and increases substrate specificity | F99L: This mutation increases anti-C3 activity by approximately 3.9-fold | G151H: This mutation increases anti-C3 activity by approximately 1.2-fold | I41S-This mutation increases anti-C3 activity by approximately 44.6-fold | Q38H-This mutation increases C3 activity by approximately 3.7-fold | Q175L: This mutation increases anti-C3 activity by approximately 4.3-fold | T98P: This mutation ... increases anti-C3 activity by approximately 2.2-fold | Y60gW-This mutation increases the enzyme's substrate specificity and increases anti-C3 activity by approximately 4.8-fold | Insert 97aV: This mutation ... increases anti-C3 activity by approximately 1.7-fold | reduces the hemolytic activity of the serum by approximately 80% | – | – | –
2 | B2 | – | – | – | – | – | – | – | – | – | – | – | – | – | – | – | 103 | 27 | 4990
3 | B3 | – | – | – | – | – | – | – | – | – | – | – | – | – | – | – | 37 | 44 | 2060

— patent US20240018502
